Experimental data: article PMC9360449, “Programmable RNA targeting by bacterial Argonaute nucleases with unconventional guide binding and cleavage specificity”

Tests used:
[1] = system: PnyAgo WT (Pedobacter nyackensis); experiment: filter binding; details: 10 mM Tris-HCl pH 7.9, 100 mM NaCl, 5 mM MgCl2 (or none), 5% glycerol, 100 ug/ml BSA, 37 C
[2] = system: PnyAgo WT (Pedobacter nyackensis); experiment: competition; details: filter binding, 100 nM pAgo; 5'-OH; 10 mM Tris-HCl pH 7.9, 100 mM NaCl, 5 mM MgCl2 (or none), 5% glycerol, 100 ug/ml BSA, 37 C
[3] = target: T1, PliAgo WT (Pseudooceanicola lipolyticus, UniProt A0A2M8J4C7 1-789); experiment: X-ray crystallography; no Mg2+; details: protein: recombinant; tags: N-His6; single strand
T1 sequence: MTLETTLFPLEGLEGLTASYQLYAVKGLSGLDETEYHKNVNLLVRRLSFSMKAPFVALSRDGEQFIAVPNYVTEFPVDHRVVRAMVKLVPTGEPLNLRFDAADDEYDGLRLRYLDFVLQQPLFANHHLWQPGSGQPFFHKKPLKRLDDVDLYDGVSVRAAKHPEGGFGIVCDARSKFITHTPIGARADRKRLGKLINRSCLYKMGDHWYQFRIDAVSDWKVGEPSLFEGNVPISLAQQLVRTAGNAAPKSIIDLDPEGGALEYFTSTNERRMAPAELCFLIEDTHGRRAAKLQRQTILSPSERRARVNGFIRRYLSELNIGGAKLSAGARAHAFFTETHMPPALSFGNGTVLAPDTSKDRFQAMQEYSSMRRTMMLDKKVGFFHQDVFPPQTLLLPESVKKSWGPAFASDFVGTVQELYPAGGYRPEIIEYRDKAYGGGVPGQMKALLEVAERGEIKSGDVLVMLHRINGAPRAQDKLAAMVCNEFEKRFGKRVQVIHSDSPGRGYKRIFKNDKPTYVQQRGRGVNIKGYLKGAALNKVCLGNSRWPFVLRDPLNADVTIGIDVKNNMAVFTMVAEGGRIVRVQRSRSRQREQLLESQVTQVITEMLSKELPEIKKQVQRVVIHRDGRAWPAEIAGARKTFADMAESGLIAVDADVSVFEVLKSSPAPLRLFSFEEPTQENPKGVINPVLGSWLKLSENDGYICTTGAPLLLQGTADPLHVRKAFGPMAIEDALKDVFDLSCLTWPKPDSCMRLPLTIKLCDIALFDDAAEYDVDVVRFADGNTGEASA

[4] = target: T1, PliAgo WT; experiment: X-ray crystallography; 10 mM Tris-HCl pH 7.9, 100 mM NaCl, 5 mM MgCl2 (or none), 5% glycerol, 100 ug/ml BSA, 37 C; details: protein: recombinant; tags: N-His6; single strand

GTTAGACTTTAAGTCAAT / UUUAUCAAAAAGAGUAUUGACUUAAAGUCUAACCUAUAGGAUACUUACAG [guide DNA / G-target-RNA]
Kd ([1]; guide-loaded, 5'-phosphate on guide): 7.5 nM

GTTAGACTTTAAGTCAAT [5'-OH guide DNA (G-guide)]
binding signal (fold Kd increase vs 5'-P guide) [2]: 12

GTTAGACTTTAAGTCAAT [5'-P guide DNA (G-guide)]
Kd ([1]; 5 mM Mg2+, 5'-phosphate): 31 nM
Kd ([1]; no Mg2+, 5'-phosphate): 390 nM

GUUAGACUUUAAGUCAAU [guide RNA (G-guide-RNA)]
Kd ([1]; 5 mM Mg2+, 5'-phosphate): > 1000 nM

B1: 3D-guide P-gDNA (ssDNA)
DNA: TTACTGCACAGGTGACGA
modifications: 5'-phosphate
binding result [3]: binds

B2: 3D-guide OH-gDNA (ssDNA)
DNA: TTACTGCACAGGTGACGA
modifications: 5'-OH
binding result [4]: binds
